Key:
[1] = molecular target: CLAcrB_(P223G/V225C/A777C) (E. coli) (UniProt P31224); experiment: cross-linking; inter-subunit disulfide trapping (C225–C777) in vivo: membrane vesicles from BW25113ΔacrB extracted in the presence of IAM, SDS-PAGE without DTT, Western blot with anti-AcrB
[2] = molecular target: CLAcrB_(P223G/V225C/A777C) (E. coli) (UniProt P31224); experiment: native gel or EMSA; blue native (BN)-PAGE of freshly purified protein, 4–20% gradient gel, no DTT
[3] = molecular target: wild type (WT) AcrB (E. coli) (UniProt P31224); experiment: as above

**Q.** How did the stoichiometry N [1] turn out when “CLAcrB_(P223G/V225C/A777C) (from UniProt P31224 1-1049) (natural protein)” was run?
**A.** 3

**Q.** What about the stoichiometry N [2] of the same substance?
**A.** 3

**Q.** For “wild type (WT) AcrB (from UniProt P31224 1-1049) (natural protein)”, which stoichiometry N [3] is on record?
**A.** 3

— article PMC3230630
